Measured values published in patent US20120129720, “APTAMER THAT RECOGNIZES PEPTIDE” (KANAGAWA PREFECTURAL HOSPITAL ORGANIZATION, published 2012).

T1: His-MIF (His-tag/T7 gene 10 leader/Xpress-MIF fusion) (UniProt P14174 P14174:1-115)
T1 chain: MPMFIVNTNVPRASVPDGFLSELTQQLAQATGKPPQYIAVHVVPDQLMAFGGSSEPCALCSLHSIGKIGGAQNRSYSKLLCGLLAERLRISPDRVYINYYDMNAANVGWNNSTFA

B1: X region SEQ 2319 (ssRNA)
RNA: GGGACGCUCACGUACGCUCAAAAGUUUUGCACGUUCUCCCGGUGUCCUGGCGCUUGGCUGUCAGUGCCUGGACGUGCAGU
modifications: 3' A20 tail for capture
B2: X region SEQ 2315 (ssRNA)
RNA: GGGACGCUCACGUACGCUCAACCCGCGACUAGGUUUUCCUGGCGACCGUCCGGUAGUGUCAGUGCCUGGACGUGCAGU
modifications: 3' A20 tail for capture
B3: X region SEQ 2322 (ssRNA)
RNA: GGGACGCUCACGUACGCUCAGUUGGUUGCUGUGCAGUCUGGGUGUCUUGGCUUUCGGAUGUCAGUGCCUGGACGUGCAGU
modifications: 3' A20 tail for capture
B4: X region SEQ 2335 (ssRNA)
RNA: GGGACGCUCACGUACGCUCACAGGCUGAUCGCUUCUUUACGUCUAAGUAUUGACUUUAGCUCAGUGCCUGGACGUGCAGU
modifications: 3' A20 tail for capture
B5: X region SEQ 2328 (ssRNA)
RNA: GGGACGCUCACGUACGCUCAAAUUGUCUUCGCGUUGUCUUGAAUGGGUAAUAGUAGACGAUCAGUGCCUGGACGUGCAGU
modifications: 3' A20 tail for capture
B6: X region SEQ 2333 (ssRNA)
RNA: GGGACGCUCACGUACGCUCAAAUGACCCCGAUUCCCCUUUCGUGUUGUCUGAUCGCAGGCUCAGUGCCUGGACGUGCAGU
modifications: 3' A20 tail for capture
B7: X region SEQ 2317 (ssRNA)
RNA: GGGACGCUCACGUACGCUCAGGUUGAUCCCGUUCUUCUUGACUGGCGCCUUCAUGGAGUGUCAGUGCCUGGACGUGCAGU
modifications: 3' A20 tail for capture
B8: X region SEQ 2314 (ssRNA)
RNA: GGGACGCUCACGUACGCUCAAACUUGAUCCUGGUUUCCAGCAGUAUGCCGCGUGAUUUCGUCAGUGCCUGGACGUGCAGU
modifications: 3' A20 tail for capture
B9: X region SEQ 2334 (ssRNA)
RNA: GGGACGCUCACGUACGCUCACACCUAGAGCCUGAACUGCCUAAGCGCUGAUCGGCAUUUAUCAGUGCCUGGACGUGCAGU
modifications: 3' A20 tail for capture
B10: X region SEQ 2330 (ssRNA)
RNA: GGGACGCUCACGUACGCUCACGCUUUAAUGAUCUGAUCGUGCUUCGCUGCGUAGUAUUGGUCAGUGCCUGGACGUGCAGU
modifications: 3' A20 tail for capture
B11: X region SEQ 2311 (ssRNA)
RNA: GGGACGCUCACGUACGCUCAAGACGGUGUACUGGCACUUUUACUUCAUUGAGUAGAAAUUCGUCAGUGCCUGGACGUGCAGU
modifications: 3' A20 tail for capture
B12: X region SEQ 2327 (ssRNA)
RNA: GGGACGCUCACGUACGCUCAAGACUCCUGUGUUUCGGGUGUACUGUCACGAUUCGUUGUCUCAGUGCCUGGACGUGCAGU
modifications: 3' A20 tail for capture
B13: X region SEQ 2318 (ssRNA)
RNA: GGGACGCUCACGUACGCUCAACUCCCUCUUUCGCGGGCUCCUUUCCGCAACACGACUGGCUCAGUGCCUGGACGUGCAGU
modifications: 3' A20 tail for capture
B14: X region SEQ 2313 (ssRNA)
RNA: GGGACGCUCACGUACGCUCAGGUGUACUGUAACCUGCCUGCCACCUGCGGCUUCGCGGACUCAGUGCCUGGACGUGCAGU
modifications: 3' A20 tail for capture
B15: X region SEQ 2339 (ssRNA)
RNA: GGGACGCUCACGUACGCUCAUGCUGAUCGUUCGGUGAAUCAUUUCCUUACCUACCUACGUUCAGUGCCUGGACGUGCAGU
modifications: 3' A20 tail for capture
B16: X region SEQ 2324 (ssRNA)
RNA: GGGACGCUCACGUACGCUCAUGGUGUACUGUACCUAUUCGACACUUCUGUUGAUUAGUGAUCAGUGCCUGGACGUGCAGU
modifications: 3' A20 tail for capture
B17: X region SEQ 2338 (ssRNA)
RNA: GGGACGCUCACGUACGCUCAUGAGACUGAUCGUGACAACUCCUGUAUGUUCGAUCUCAUCUCAGUGCCUGGACGUGCAGU
modifications: 3' A20 tail for capture
B18: X region SEQ 2332 (ssRNA)
RNA: GGGACGCUCACGUACGCUCAUUAGACGUUCUCUACGUCCGUGCCGCCCUGAUCGAGCGACUCAGUGCCUGGACGUGCAGU
modifications: 3' A20 tail for capture
B19: X region SEQ 2336 (ssRNA)
RNA: GGGACGCUCACGUACGCUCAUCGAUUAGAAUACUCUUUGUGCGCCGUCGGCCUGAUCGUUCAGUGCCUGGACGUGCAGU
modifications: 3' A20 tail for capture
B20: X region SEQ 2320 (ssRNA)
RNA: GGGACGCUCACGUACGCUCAGACGUUCAAGUAAAUUGGCCCUAUAUUUCGUUAUAGUAUGUCAGUGCCUGGACGUGCAGU
modifications: 3' A20 tail for capture
B21: X region SEQ 2321 (ssRNA)
RNA: GGGACGCUCACGUACGCUCAGCACUGCUUACGGGGUCUCCGGCAGUAUGCCCUGGUGUAUUCAGUGCCUGGACGUGCAGU
modifications: 3' A20 tail for capture
B22: X region SEQ 2337 (ssRNA)
RNA: GGGACGCUCACGUACGCUCAUCGUCGUAGGCGUACUGAUCGAAUCGUACUUACUAUUGCGUCAGUGCCUGGACGUGCAGU
modifications: 3' A20 tail for capture
B23: X region SEQ 2310 (ssRNA)
RNA: GGGACGCUCACGUACGCUCAUGGUGGAUUGGUGCAUCUAUGUCUUCUUACUUGUUAUCAGUGCCUGGACGUGCAGU
modifications: 3' A20 tail for capture
B24: X region SEQ 2329 (ssRNA)
RNA: GGGACGCUCACGUACGCUCAAAACCUGUGCUGAUCGCUGUUGGACAGUUCUACAUGCGCAUCAGUGCCUGGACGUGCAGU
modifications: 3' A20 tail for capture
B25: X region SEQ 2316 (ssRNA)
RNA: GGGACGCUCACGUACGCUCACAACUUGUAUUGUCCGGGUGUACUGUACCGAAACUCGUGAUCAGUGCCUGGACGUGCAGU
modifications: 3' A20 tail for capture
B26: X region SEQ 2331 (ssRNA)
RNA: GGGACGCUCACGUACGCUCAGAGUCGUUAUCUCCUGUACUAAUCACCUACUGAUCGAGCAUCAGUGCCUGGACGUGCAGU
modifications: 3' A20 tail for capture
B27: X region SEQ 2323 (ssRNA)
RNA: GGGACGCUCACGUACGCUCACUACAAUAAUAUUACCCCUUGUUUUCGUUUAGUCCGGGUUUCAGUGCCUGGACGUGCAGU
modifications: 3' A20 tail for capture
B28: X region SEQ 2326 (ssRNA)
RNA: GGGACGCUCACGUACGCUCAGGCUACUGGUCAGAGGUUUCCAGCAGAUUUCCUGCCUAAAUCAGUGCCUGGACGUGCAGU
modifications: 3' A20 tail for capture
B29: X region SEQ 2309 (ssRNA)
RNA: GGGACGCUCACGUACGCUCACUGGGCGACUAGGUGUACUGGCUAUCACGUUCUGGAUAAGUCAGUGCCUGGACGUGCAGU
modifications: 3' A20 tail for capture
B30: X region SEQ 2325 (ssRNA)
RNA: GGGACGCUCACGUACGCUCAUACUUCCGGGUGUACUGUAAGCCCUACGCUGGAGGGGCUCUCAGUGCCUGGACGUGCAGU
modifications: 3' A20 tail for capture

Target: T1, His-MIF (His-tag/T7 gene 10 …)
Test: SPR; data not shown
Settings: MIF 115 aa; ATGen

| Binder | binding result |
| --- | --- |
| B1 | binds |
| B2 | binds |
| B3 | binds |
| B4 | binds |
| B5 | binds |
| B6 | binds |
| B7 | binds |
| B8 | binds |
| B9 | binds |
| B10 | binds |
| B11 | binds |
| B12 | binds |
| B13 | binds |
| B14 | binds |
| B15 | binds |
| B16 | binds |
| B17 | binds |
| B18 | binds |
| B19 | binds |
| B20 | binds |
| B21 | binds |
| B22 | binds |
| B23 | binds |
| B24 | binds |
| B25 | binds |
| B26 | binds |
| B27 | binds |
| B28 | binds |
| B29 | binds |
| B30 | binds |
